# Values joined by “and” are separate entries in the source; they are usually repeats but may differ in a detail not shown here. Equal entries are not always repeated. Where two headings read alike, the source gives them in different places.
# How the values were obtained:
# spike RBD = spike RBD (Severe acute respiratory syndrome coronavirus 2, UniProt P0DTC2)
# [1] = target: SARS-CoV-2-Spike receptor binding domain protein (RBD) (Severe acute respiratory syndrome coronavirus 2, UniProt P0DTC2)
# [2] = Capillary isoelectric focusing (cIEF), isoelectric point; type: physicochemical; details: non-reduced; mature knob expression, 2 L scale
# Procedure: Capillary isoelectric focusing (cIEF): 2 mg/mL knob protein samples were diluted 2-fold by combining 30 microliter of sample with 30 μL of Milli-Q water. 20 μL of the diluted sample was added to 180 μL of Master Mix comprised of: 35% of 1% Methyl cellulose, 10 mM of 0.5M Arginine, 10 mM of 0.25M Iminodiacetic acid, 4% of pI 3-10 Pharmalyte solution, 1% of pI 4.05 marker, 1% of pI 9.5 marker, 2M of 8M Urea, and Milli-Q water. The total amount of 200 μL was then aliquoted into the sample plate for iCIEF analysis. Separation of the analyte occurs in the Maurice capillary cIEF cartridge (Bio-techne PN: PS-MC02-C) set to 55 seconds of sample load, and 1 min at 1500 V then 15 min at 3000 V. Both absorbance and fluorescence detection settings were enabled. Absorbance exposure time was set to 0.005 seconds, while fluorescence exposure times were set to 3, 5, 10, 20 and 40 seconds. Data processing was performed by Compass for iCE software (Version: 2.1.0, Build ID: 0226) from Bio-techne.
# [3] = target: SARS-CoV-2 Spike RBD (SARS-CoV-2), P0DTC2
# [4] = target: SARS-CoV-2 Spike RBD (SARS-CoV-2), P0DTC2; remark: listed apart in the source
# [5] = target: SARS-CoV-2 Spike RBD (SARS-CoV-2), P0DTC2; remark: listed apart in the source
# [6] = target: SARS-CoV-2 Spike RBD (SARS-CoV-2), P0DTC2; remark: listed apart in the source
# [7] = target: SARS-CoV-2 Spike RBD (SARS-CoV-2), P0DTC2; remark: listed apart in the source
# [8] = target: SARS-CoV-2 Spike RBD (SARS-CoV-2), P0DTC2; remark: listed apart in the source
# [9] = target: SARS-CoV-2 Spike RBD (SARS-CoV-2), P0DTC2; remark: listed apart in the source
# [10] = target: SARS-CoV-2 Spike RBD (SARS-CoV-2), P0DTC2; remark: listed apart in the source
# [11] = target: SARS-CoV-2 Spike RBD (SARS-CoV-2), P0DTC2; remark: listed apart in the source
# [12] = target: SARS-CoV-2 Spike RBD (SARS-CoV-2), P0DTC2; remark: listed apart in the source
# [13] = target: SARS-CoV-2 Spike RBD (SARS-CoV-2), P0DTC2; remark: listed apart in the source
# [14] = target: SARS-CoV-2 Spike RBD (SARS-CoV-2), P0DTC2; remark: listed apart in the source
# [15] = target: SARS-CoV-2 Spike RBD (SARS-CoV-2), P0DTC2; remark: listed apart in the source
# [16] = target: SARS-CoV-2 Spike RBD (SARS-CoV-2), P0DTC2; remark: listed apart in the source
# [17] = target: SARS-CoV-2 Spike RBD (SARS-CoV-2), P0DTC2; remark: listed apart in the source
# [18] = target: SARS-CoV-2 Spike RBD (SARS-CoV-2), P0DTC2; remark: listed apart in the source
# [19] = target: SARS-CoV-2 Spike RBD (SARS-CoV-2), P0DTC2; remark: listed apart in the source
# [20] = target: SARS-CoV-2 Spike RBD (SARS-CoV-2), P0DTC2; remark: listed apart in the source
# [21] = target: SARS-CoV-2 Spike RBD (SARS-CoV-2), P0DTC2; remark: listed apart in the source
# [22] = target: SARS-CoV-2 Spike RBD (SARS-CoV-2), P0DTC2; remark: listed apart in the source
# [23] = target: SARS-CoV-2 Spike RBD (SARS-CoV-2), P0DTC2; remark: listed apart in the source
# [24] = target: SARS-CoV-2 Spike RBD (SARS-CoV-2), P0DTC2; remark: listed apart in the source
# [25] = target: SARS-CoV-2 Spike RBD (SARS-CoV-2), P0DTC2; remark: listed apart in the source
# [26] = target: SARS-CoV-2 Spike RBD (SARS-CoV-2), P0DTC2; remark: listed apart in the source
# [27] = target: SARS-CoV-2 Spike RBD (SARS-CoV-2), P0DTC2; remark: listed apart in the source
# [28] = target: SARS-CoV-2 Spike RBD (SARS-CoV-2), P0DTC2; remark: listed apart in the source
molecule,measurement,setting,value
R2G3-mini (GSTCPDGYEHTCGCIGGCGCKRSACIGALCCQASLGGWLS),binding activity to spike RBD,spike RBD,maintain binding activity
same,Amino Acid Sequence of Binding Epitopes to Spike RBD Protein as determined by HDX Analysis: Major Epitope,[1],154-192 (Major and 154-194 (Major
same,RBD amino acid sequence with maximum protection against deuterium uptake,[1],158-184
same,Isoelectric Point (pI) Determination by iCEF,[2],7.37 (non-reduced)
R2F12-mini (GGSNACPDDFDYRCSCIGGCGCARKGCVGPLCCRSDLGGYLTDSPA),binding activity to spike RBD,spike RBD,maintain binding activity
same,Amino Acid Sequence of Binding Epitopes to Spike RBD Protein as determined by HDX Analysis: Major Epitope,[1],154-194 (Major and 154-192 (Major
same,Isoelectric Point (pI) Determination by iCEF,[2],5.15 (non-reduced)
R2F12-His (modifications not checked) GGGGAMGSKTKNACPDDFDYRCSCIGGCGCARKGCVGPLCCRSDLGGYLTDSPAYIYLGGGGSGGGGSHHHHHH,Adjusted Binding Rate,[3],3.54 nm/s
same,Adjusted Binding Rate,[4],3.86 nm/s
same,Adjusted Binding Rate,[5],3.61 nm/s
same,Adjusted Binding Rate,[6],0.4 nm/s
same,Adjusted Binding Rate,[7],2.38 nm/s
same,Adjusted Binding Rate,[8],1.3 nm/s
same,Adjusted Binding Rate,[9],0.62 nm/s
same,Adjusted Binding Rate,[10],0.8 nm/s
same,Adjusted Binding Rate,[11],5.37 nm/s
same,Adjusted Binding Rate,[12],2.11 nm/s
same,Adjusted Binding Rate,[13],2.46 nm/s
same,Adjusted Binding Rate,[14],1.62 nm/s
same,Adjusted Binding Rate,[15],9.3 nm/s
same,Adjusted Binding Rate,[16],1.33 nm/s
same,Adjusted Binding Rate,[17],0.8 nm/s
same,Adjusted Binding Rate,[18],4.69 nm/s
same,Adjusted Binding Rate,[19],3.32 nm/s
same,Adjusted Binding Rate,[20],2.68 nm/s
same,Adjusted Binding Rate,[21],0.5 nm/s
same,Adjusted Binding Rate,[22],4.7 nm/s
same,Adjusted Binding Rate,[23],3.6 nm/s
same,Adjusted Binding Rate,[24],2.69 nm/s
same,Adjusted Binding Rate,[25],2.76 nm/s
same,Adjusted Binding Rate,[26],1.67 nm/s
same,Adjusted Binding Rate,[27],9.6 nm/s
same,Adjusted Binding Rate,[28],14.9 nm/s

# Reference: US20260201020A1, “METHODS FOR EXPRESSION OF FUSION-FREE BOVINE ULTRALONG CDR3 SCAFFOLD” (priority 2022, published 2026)
